Experiment [1] concerns the target RSV A + RSV B bivalent composition (RSV subtype A; RSV subtype B). Briefly: AM14 Fab titration by SEC; High-Slow 2 cycle; T0 (second value). On the technique in general: Size exclusion chromatography separates by hydrodynamic size, large species first.
Experiment [2] has the same target. Briefly: AM14 Fab titration by SEC; High-Slow 2 cycle; 1 M 2-8°C.
For experiment [3] the target is unchanged. Briefly: AM14 Fab titration by SEC; High-Slow 1 cycle; 1 M 2-8°C (second value).
For experiment [4] the target is unchanged. Briefly: AM14 Fab titration by SEC; Low-Fast cycle; 3 M 25°C.
Experiment [5] has the same target. The experiment in a line: AM14 Fab titration by SEC; Target cycle; 1 M 40°C.
Experiment [6] has the same target. The experiment in a line: AM14 Fab titration by SEC; Target cycle; 1 M 2-8°C.
Experiment [7] shares this target. Briefly: AM14 Fab titration by SEC; High-Slow 1 cycle; 3 M 2-8°C.
The target is the same in experiment [8]. The experiment in a line: AM14 Fab titration by SEC; composition of Table 14; Cumulative Aggressive (High-Slow) cycle.
Experiment [9] shares this target. The experiment in a line: AM14 Fab titration by SEC; High-Slow 1 cycle; 1 M 2-8°C.
The target is the same in experiment [10]. Briefly: AM14 Fab titration by SEC; composition of Table 14; Annealing Ramp Aggressive cycle.
Experiment [11] deals with T1, RSV F protein of subtype A comprising a polypeptide of SEQ ID NO: 1 and a polypeptide of SEQ ID NO: 2 (RSV subtype A, UniProt P11209 137-513; P03420 26-109).
T1 construct: Stabilized prefusion F trimer made of three F2-F1 heterodimers; Produced recombinantly in CHO cells; also called RSV A; RSVA
T1 chain 1: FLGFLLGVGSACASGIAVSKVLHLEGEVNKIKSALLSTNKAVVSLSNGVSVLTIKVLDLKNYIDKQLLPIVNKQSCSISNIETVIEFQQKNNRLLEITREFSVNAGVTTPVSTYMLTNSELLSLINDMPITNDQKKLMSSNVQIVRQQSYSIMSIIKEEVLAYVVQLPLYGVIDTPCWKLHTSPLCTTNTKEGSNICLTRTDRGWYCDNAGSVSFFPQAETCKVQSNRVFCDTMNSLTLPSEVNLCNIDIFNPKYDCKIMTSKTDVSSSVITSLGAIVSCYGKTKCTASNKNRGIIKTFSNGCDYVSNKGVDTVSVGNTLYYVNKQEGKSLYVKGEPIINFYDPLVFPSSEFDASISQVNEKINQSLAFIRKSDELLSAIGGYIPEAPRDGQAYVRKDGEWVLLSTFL
T1 chain 2: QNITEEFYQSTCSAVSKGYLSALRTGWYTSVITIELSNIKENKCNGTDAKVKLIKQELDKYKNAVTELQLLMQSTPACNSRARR
The experiment in a line: AM14 ELISA; F3 (pH 8, 0 mM NaCl, 9% sucrose); 1 wk 5°C. On the technique in general: In an ELISA, binding on a coated surface is turned into a signal by an enzyme label.

The target in experiment [12] is T2, RSV F protein comprising a polypeptide of SEQ ID NO: 3 and a polypeptide of SEQ ID NO: 4 (RSV subtype B, UniProt O36634 137-513; O36634 26-109).
T2 construct: also called RSV B; RSVB
T2 chain 1: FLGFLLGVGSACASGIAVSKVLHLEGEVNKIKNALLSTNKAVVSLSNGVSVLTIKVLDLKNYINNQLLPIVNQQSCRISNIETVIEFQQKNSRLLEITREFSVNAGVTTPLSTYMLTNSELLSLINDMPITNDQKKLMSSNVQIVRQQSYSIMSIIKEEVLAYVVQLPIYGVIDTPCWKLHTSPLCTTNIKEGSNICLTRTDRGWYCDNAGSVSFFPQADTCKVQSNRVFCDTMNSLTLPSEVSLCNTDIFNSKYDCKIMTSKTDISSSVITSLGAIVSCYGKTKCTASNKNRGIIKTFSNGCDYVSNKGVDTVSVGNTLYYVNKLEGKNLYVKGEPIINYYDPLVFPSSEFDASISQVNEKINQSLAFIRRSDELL
T2 chain 2: T1 chain 2 with K17R, L20F, N42T, A49T, S74N, S80N
The experiment in a line: AM14 prefusion assay relative to standard; RSV B 480 µg/mL, 2% sucrose + 4% mannitol; post-lyo 2 months at 5°C.

Experiment [13] has as its target T1, RSV F protein of subtype A comprising a …. Briefly: AM14 ELISA; F4 (pH 6, 50 mM NaCl, 4.5% sucrose); T0.
Experiment [14] has the same target. Briefly: AM14 ELISA; F15 (pH 6, 0 mM NaCl, 9% sucrose); T0.
Experiment [15] shares this target. Briefly: AM14 ELISA; F18 (pH 7, 50 mM NaCl, 3% sucrose + 3% mannitol); 1 wk 5°C.
The target is the same in experiment [16]. Briefly: AM14 ELISA; F2 (pH 8, 0 mM NaCl, 0% sucrose); T0.

Substitutions are numbered along the chain they refer to.

For AM14 Fab, the Prefusion Content (%) in [1] was 73%; in [2] it was 68%; in [3], 44%; in experiment [4] it was 66%; in experiment [5], 64%; in [6], 59%. Besides, the Prefusion Content (%) in experiment [7] was determined as 49%; in experiment [8], 64%; in experiment [9], 52%; in experiment [10], 81%.

B1: AM14 (trimeric prefusion specific antibody of the AM14 ELISA) (antibody, V domains shown)
VH: EVQLVESGGGVVQPGRSLRLSCAASGFSFSHYAMHWVRQAPGKGLEWVAVISYDGENTYYADSVKGRFSISRDNSKNTVSLQMNSLRPEDTALYYCARDRIVDDYYYYGMDVWGQGATVTVSS
VL: DIQMTQSPSSLSASVGDRVTITCQASQDIKKYLNWYHQKPGKVPELLMHDASNLETGVPSRFSGRGSGTDFTLTISSLQPEDIGTYYCQQYDNLPPLTFGGGTKVEIKR
notes: Antibody as used in the AM14 ELISA, detected with an HRP-labeled secondary antibody
Consider B1, for which the “AM14 prefusion content (%), relative to standard” value in experiment [11] worked out at 104%; in experiment [12], 101%; in [13], 57%; in [14], 106%; in experiment [15], 56%; in [16], 86%.

The values are drawn from patent publication US20260097113A1 (Pfizer, published 2026).
